Test results published in patent US20240342284A1 (ARSENAL BIOSCIENCES, published 2024).
Each block holds one binder with its values, some of them ahead of it.

Columns and labels:
[1] = target: T1, human Carbonic Anhydrase IX (CA9) expressed on cells (human, UniProt Q16790 38-459); assay: flow cytometry histograms on the wt line 293T-LP81-CA9(CL572), secondary mouse anti human IgG2 stain
[2] = target: T2, human CA9 isoform with 91-96 deletion, expressed on HEK293T cells (human, UniProt Q16790 38-459); assay: flow cytometry histograms on the 91-96del CA9 HEK293T line, secondary mouse anti human IgG2 stain
T2 construct: also called CA9-91-96del; 91-96del CA9

[3] = target: T3, human CA9 isoform with Q326R SNP, expressed on HEK293T cells (human, UniProt Q16790 38-459); assay: flow cytometry histograms on the snpQ326R CA9 HEK293T line, secondary mouse anti human IgG2 stain
T3 construct: also called CA9-Q326R; Q326R CA9

[4] = target: T1, human Carbonic Anhydrase IX (CA9) …; assay: flow cytometry on HEK293T-CA9 against parental cells (data not shown)
Procedure: (§1) Binding of recombinant CA9 1-mIgG2a and CA9 2-mIgG2a to CA9 was assessed by cell binding dose curves on parental HEK293T cells and HEK293T-CA9 expressing cell lines. Briefly, HEK293T parental and HEK293T-CA9 engineered cells were first blocked with human Fc blocker for 10 min at room temperature, stained for 30 min on ice with recombinant antibodies in an 8-point serial dilution, and washed 3 times with BD Stain Buffer. Subsequently, cells were stained for 30 min on ice with anti-mouse IgG2a-PE secondary antibody. Cell surface binding was measured on an Attune flow cytometer, with geometric mean fluorescence intensity (gMFI) data analyzed in FlowJo and plotted using GraphPad Prism. The dose-response curves and EC50 value were analyzed and obtained using the nonlinear fit model of (agonist) versus response (three parameters).

[5] = target: T4, human Prostate-Specific Membrane Antigen (PSMA) expressed on cells (human, UniProt Q04609 1-750); assay: flow cytometry, 8-point serial dilution on HEK293T-PSMA cells, anti-mouse IgG2a-PE secondary, gMFI
T4 construct: also called FOLH1; HEK293T-PSMA
Procedure: as §1, with “PSMA expressing HEK293T cell lines were used to assess the binding” for “Binding”, “antibodies” for “CA9 1-mIgG2a and CA9 2-mIgG2a”, “to” for “to CA9 was assessed by”, “surface expressed PSMA.” for “binding dose curves on parental HEK293T cells and HEK293T-CA9 expressing cell lines.”, “HEK293T-PSMA” for “HEK293T-CA9”
(§2) There was no binding to parental HEK293T cells.

recombinant mouse PSMA = target: T5, recombinant mouse PSMA (mouse, UniProt O35409 45-752, limits assumed); assay: BLI (Octet R8), antibody on anti-mouse capture biosensors, recombinant antigen as analyte
T5 construct: also called mouse homolog of PSMA
Procedure: (§3) The binding affinity of recombinant CA9 antibodies to human CA9 target antigen and cross-reactivity to mouse homologs was measured on the Octet R8. Briefly, recombinant antibody was loaded onto anti-mouse capture (AMC) Octet biosensors. Biosensors were then dipped into different concentrations of recombinant target antigen (analyte) solution, and the rate of protein-protein complex formation (association) measured. Protein-protein dissociation rates were measured when the biosensors were dipped into kinetic buffer alone. The Octet Analysis Studio 13.0 software calculated the response in equilibrium (Req) using the association and dissociation signal. The KD value and other kinetics parameters were determined by the values of Req for each analyte concentration (Table 1).
as §3, with “recombinant” for “recombinant CA9”, “PSMA” for “CA9”, “R8 instrument. […]” for “R8. Briefly, recombinant antibody was loaded onto anti-mouse capture (AMC) Octet biosensors.”, “The KD value and other kinetics parameters were determined by the values of Req for each analyte concentration (Table 1).” left out

[6] = target: T6, mouse PSMA expressed on HEK293T cells (mouse, UniProt O35409 1-752); assay: flow cytometry histograms on HEK293T-mPSMA cells (panel B, left), axis PSMA 1 ab MFI
T6 construct: whole, on cells; also called HEK293T-mPSMA; mPSMA
Procedure: Cross-reactivity of PSMA 1 to mouse PSMA was evaluated using flow cytometry. In brief, HEK293T cells expressing mouse PSMA (HEK293T-mPSMA) were stained for 30 min on ice with increasing concentrations of PSMA 1-mIgG2a. Target cells were also stained with positive control antibodies to confirm expression of mouse PSMA on the engineered HEK293T cells. Following primary staining, the cells were washed, stained with secondary antibody, and subsequently analyzed by flow cytometry. Data were analyzed using FlowJo.

recombinant human PSMA = target: T7, recombinant human PSMA (human, UniProt Q04609 44-750); assay: BLI (Octet R8), antibody on anti-mouse capture biosensors, recombinant human PSMA as analyte
T7 construct: Soluble recombinant antigen used as analyte on the Octet
Procedure: as §3, with “recombinant” for “recombinant CA9”, “PSMA” for “CA9”, “R8 instrument.” for “R8.”, “2).” for “1).”

[7] = target: T8, mouse CA9 expressed on HEK293T cells (mouse, UniProt Q8VHB5 32-437); assay: flow cytometry histograms on HEK293T-mCA9 cells (panel B, left), axis CA9 1 ab MFI
T8 construct: whole, on cells; also called HEK293T-mCA9; mCA9
Excerpt: To assess cross-reactivity of CA9 1 to mouse CA9 and further confirm the binding kinetics to human CA9, HEK293T-mCA9 cells were stained with increasing concentrations of CA9 1-mIgG2a then analyzed by flow cytometry. Recombinant CA9 1-mIgG2a protein was titrated against parental and engineered HEK293T cell lines expressing mouse CA9. Target cells were also stained with positive control antibodies to confirm expression of mouse CA9 on the engineered HEK293T cells. Following primary staining, the cells were washed, stained with secondary antibody, and subsequently analyzed by flow cytometry. Data were analyzed using FlowJo. Target cells were also stained using an anti-mouse CA9 positive control antibody to confirm expression of mouse CA9 on the HEK293T-mCA9 cells.

recombinant mouse CA9 = target: T9, recombinant mouse CA9 (mouse, UniProt Q8VHB5 32-390, limits assumed); assay: BLI (Octet R8), antibody on anti-mouse capture biosensors, recombinant antigen as analyte
T9 construct: also called mouse homolog of CA9
Procedure: as §3
as §3, with “recombinant” for “recombinant CA9”, “PSMA” for “CA9”, “R8 instrument. […]” for “R8. Briefly, recombinant antibody was loaded onto anti-mouse capture (AMC) Octet biosensors.”, “The KD value and other kinetics parameters were determined by the values of Req for each analyte concentration (Table 1).” left out

[8] = target: T1, human Carbonic Anhydrase IX (CA9) …; assay: flow cytometry, 8-point serial dilution on HEK293T-CA9 cells, anti-mouse IgG2a-PE secondary, gMFI
Procedure: as §1, §2

recombinant human CA9 = recombinant human CA9 (human, UniProt Q16790 38-414); assay: BLI (Octet R8), antibody on anti-mouse capture biosensors, recombinant human CA9 as analyte
Procedure: as §3

[9] = target: T4, human Prostate-Specific Membrane …; assay: flow cytometry dose curves on HEK293T-PSMA against parental cells (data not shown)
Procedure: as §1, with “PSMA expressing HEK293T cell lines were used to assess the binding” for “Binding”, “antibodies” for “CA9 1-mIgG2a and CA9 2-mIgG2a”, “to” for “to CA9 was assessed by”, “surface expressed PSMA.” for “binding dose curves on parental HEK293T cells and HEK293T-CA9 expressing cell lines.”, “HEK293T-PSMA” for “HEK293T-CA9”
Binding of PSMA 1-mIgG2a or PSMA 2-mIgG2a to PSMA was assessed by cell binding dose curves on parental HEK293T cells and HEK293T-PSMA expressing cell lines. […] (data not shown)

T7 sequence (Q04609 44-750 limits assumed): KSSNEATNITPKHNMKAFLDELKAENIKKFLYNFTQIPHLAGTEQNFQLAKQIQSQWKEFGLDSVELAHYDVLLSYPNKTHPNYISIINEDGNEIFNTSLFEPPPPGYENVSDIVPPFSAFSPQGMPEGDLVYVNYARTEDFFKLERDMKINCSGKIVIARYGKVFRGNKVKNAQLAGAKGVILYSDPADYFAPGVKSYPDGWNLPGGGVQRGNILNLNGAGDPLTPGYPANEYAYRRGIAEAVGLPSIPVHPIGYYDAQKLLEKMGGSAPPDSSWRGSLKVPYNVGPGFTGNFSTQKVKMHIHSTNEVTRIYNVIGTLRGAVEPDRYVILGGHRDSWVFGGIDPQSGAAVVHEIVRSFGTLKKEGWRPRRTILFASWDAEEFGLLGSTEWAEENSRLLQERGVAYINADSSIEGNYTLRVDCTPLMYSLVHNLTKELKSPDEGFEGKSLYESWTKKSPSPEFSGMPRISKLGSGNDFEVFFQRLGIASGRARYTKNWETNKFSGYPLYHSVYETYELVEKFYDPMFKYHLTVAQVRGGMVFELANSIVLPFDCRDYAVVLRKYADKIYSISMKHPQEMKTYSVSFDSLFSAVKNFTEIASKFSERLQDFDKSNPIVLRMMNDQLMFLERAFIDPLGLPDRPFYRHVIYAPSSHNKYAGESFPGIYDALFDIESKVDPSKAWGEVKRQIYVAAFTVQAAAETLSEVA
T4 sequence (Q04609 whole entry): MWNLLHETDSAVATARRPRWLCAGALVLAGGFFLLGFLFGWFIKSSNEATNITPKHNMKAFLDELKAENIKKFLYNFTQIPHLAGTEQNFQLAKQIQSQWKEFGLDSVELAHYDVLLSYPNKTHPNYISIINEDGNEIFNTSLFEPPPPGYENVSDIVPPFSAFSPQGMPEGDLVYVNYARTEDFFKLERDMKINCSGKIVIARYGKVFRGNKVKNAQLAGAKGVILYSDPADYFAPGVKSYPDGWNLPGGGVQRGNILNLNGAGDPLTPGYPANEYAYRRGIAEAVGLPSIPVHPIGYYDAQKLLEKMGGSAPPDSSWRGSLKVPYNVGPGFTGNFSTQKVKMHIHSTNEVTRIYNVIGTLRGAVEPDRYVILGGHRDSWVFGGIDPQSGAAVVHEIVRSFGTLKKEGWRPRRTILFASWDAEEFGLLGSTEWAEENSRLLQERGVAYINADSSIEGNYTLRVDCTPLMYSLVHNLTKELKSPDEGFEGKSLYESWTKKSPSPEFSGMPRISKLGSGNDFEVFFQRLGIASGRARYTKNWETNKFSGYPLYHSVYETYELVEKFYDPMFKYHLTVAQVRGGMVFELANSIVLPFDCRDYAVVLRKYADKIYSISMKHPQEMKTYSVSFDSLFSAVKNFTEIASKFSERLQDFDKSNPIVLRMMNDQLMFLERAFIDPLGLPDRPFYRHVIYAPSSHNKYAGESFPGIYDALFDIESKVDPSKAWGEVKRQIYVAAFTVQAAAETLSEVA
T8 sequence (Q8VHB5 32-437): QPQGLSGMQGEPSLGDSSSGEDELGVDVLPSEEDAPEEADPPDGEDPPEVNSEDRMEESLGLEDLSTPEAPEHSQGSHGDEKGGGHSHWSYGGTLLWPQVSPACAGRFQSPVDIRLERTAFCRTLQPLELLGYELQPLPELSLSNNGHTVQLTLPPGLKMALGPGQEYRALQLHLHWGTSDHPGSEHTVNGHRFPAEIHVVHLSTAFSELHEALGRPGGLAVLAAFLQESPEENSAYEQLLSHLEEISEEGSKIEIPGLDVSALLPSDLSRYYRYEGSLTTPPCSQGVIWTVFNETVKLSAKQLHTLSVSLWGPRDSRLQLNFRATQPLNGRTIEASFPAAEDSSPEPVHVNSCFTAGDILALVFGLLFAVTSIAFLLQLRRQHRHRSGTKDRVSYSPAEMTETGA
T6 sequence (O35409 whole entry): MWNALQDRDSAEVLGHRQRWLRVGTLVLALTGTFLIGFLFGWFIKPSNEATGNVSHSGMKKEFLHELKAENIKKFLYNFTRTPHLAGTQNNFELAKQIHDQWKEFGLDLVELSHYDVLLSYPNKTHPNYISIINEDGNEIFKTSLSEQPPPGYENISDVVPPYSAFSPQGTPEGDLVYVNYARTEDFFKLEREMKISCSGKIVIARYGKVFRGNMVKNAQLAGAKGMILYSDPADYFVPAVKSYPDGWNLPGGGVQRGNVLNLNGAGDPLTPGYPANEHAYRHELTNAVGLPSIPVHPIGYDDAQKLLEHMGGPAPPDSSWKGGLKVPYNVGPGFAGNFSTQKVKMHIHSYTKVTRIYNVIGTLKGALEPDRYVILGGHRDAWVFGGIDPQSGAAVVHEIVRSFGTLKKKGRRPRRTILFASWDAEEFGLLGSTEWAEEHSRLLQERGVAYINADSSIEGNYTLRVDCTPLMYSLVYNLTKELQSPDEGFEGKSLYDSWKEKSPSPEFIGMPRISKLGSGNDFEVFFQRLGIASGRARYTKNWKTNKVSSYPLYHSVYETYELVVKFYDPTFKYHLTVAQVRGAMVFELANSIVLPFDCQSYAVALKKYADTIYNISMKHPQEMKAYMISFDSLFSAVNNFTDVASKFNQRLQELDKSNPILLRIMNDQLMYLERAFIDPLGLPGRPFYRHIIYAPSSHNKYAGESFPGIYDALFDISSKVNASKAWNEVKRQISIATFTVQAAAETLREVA
T5 sequence (O35409 45-752 limits assumed): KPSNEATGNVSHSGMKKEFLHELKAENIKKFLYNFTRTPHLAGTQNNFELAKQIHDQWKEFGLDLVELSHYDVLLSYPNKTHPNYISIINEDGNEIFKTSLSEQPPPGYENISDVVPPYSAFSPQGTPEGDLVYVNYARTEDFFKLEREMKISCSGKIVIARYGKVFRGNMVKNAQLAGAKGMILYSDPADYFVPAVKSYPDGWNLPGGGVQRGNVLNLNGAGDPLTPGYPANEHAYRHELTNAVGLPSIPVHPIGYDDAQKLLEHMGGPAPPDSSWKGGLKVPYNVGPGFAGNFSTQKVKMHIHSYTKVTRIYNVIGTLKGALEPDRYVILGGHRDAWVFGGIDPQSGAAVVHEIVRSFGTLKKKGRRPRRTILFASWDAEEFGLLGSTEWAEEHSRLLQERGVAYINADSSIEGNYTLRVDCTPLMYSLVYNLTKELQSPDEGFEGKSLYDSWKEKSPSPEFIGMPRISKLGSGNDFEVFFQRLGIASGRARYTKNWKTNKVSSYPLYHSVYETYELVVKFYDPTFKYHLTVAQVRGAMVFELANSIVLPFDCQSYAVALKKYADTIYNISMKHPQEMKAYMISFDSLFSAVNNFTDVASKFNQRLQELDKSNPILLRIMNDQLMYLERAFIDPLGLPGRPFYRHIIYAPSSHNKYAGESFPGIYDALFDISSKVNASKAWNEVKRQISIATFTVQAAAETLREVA
T9 sequence (Q8VHB5 32-390 limits assumed): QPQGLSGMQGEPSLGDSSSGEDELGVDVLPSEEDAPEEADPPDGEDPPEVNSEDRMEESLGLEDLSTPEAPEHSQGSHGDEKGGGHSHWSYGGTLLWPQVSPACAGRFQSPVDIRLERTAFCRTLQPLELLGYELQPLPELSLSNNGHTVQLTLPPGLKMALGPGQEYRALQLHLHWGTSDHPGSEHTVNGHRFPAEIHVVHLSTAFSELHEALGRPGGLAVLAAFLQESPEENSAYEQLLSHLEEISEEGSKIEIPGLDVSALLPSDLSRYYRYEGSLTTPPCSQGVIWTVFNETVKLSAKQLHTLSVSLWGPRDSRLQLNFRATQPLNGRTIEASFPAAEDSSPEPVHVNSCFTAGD

B1: CA9 1 scFv (scFv)
scFv: QVQLVQSGAEVKKPGASVKVSCKASGYTFTSYYMHWVRQAPGQGLEWMGIINPSRGSASYAQKFQGRVTMARDTSTSTVYMELSSLRSEDTAVYYCARDRNYYYYMDVWGKGTTVTVSSGGGGSGGGGSGGGGSEIVMTQSPATLSVSPGERATLSCRASQNISSNLAWYQQKPGQAPRLLIYGASTRATDIPARFSGSGSGTEFTLTISSLQSEDFAVYYCQQYITWYTFGQGTKLEIK
notes: Used to stain the CA9 isoform cell lines; It was detected with a secondary 'mouse anti human IgG2' stain
binding result [1]: binds
binding result [2]: binds
binding result [3]: binds

B2: CA9 2 scFv (as printed; CA9 2 is a VH-only single domain) (VHH)
VHH: EVQLVESGGGLVQPGGSLRLSCAASGFSFSDYSGMSWVRQAPGKGEELVSAISPGGGDTYYADSVKGRFTISRDNSKNTLYLQMNSLRAEDTAVYYCARRWWYYSNHSGDYDYFDYRGQGTLVTVSS
notes: It was detected with a secondary 'mouse anti human IgG2' stain
binding result [1]: binds
binding result [2]: binds
binding result [3]: binds

B4: PSMA 1-mIgG2a (antibody, V domains shown)
VH: QVQLVQSGPEVKKPGASVKVSCKASGYTFTSYGITWVRQAPGQGLEWMGWISEYNGNTNYAQKFQGRVTMTIDTSTTTAYMELRSLRSDDTAVYFCARGGILPYYFFYYMDVWGKGTTVTVSS
VL: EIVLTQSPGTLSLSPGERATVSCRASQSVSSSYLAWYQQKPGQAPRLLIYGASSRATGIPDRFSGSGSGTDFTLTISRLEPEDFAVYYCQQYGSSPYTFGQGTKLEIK
notes: Fully human VH and VL cloned into vectors with mouse IgG2a constant domains (chimeric, expressed in CHO); also called PSMA 1 antigen biding fragment
EC50 [5]: 1.86 nM
binding result (recombinant mouse PSMA): no binding
binding result [6]: no binding (tested: 30 µg/mL)
Kd (recombinant human PSMA): 0.3 nM
koff (recombinant human PSMA): 1.89e-05 s⁻¹
kon (recombinant human PSMA): 63300 M⁻¹ s⁻¹

Results, then the binder that gave them:

binding result [4]: binds
B3: CA9 2-mIgG2a (antibody, V domains shown)
VH: B2 VHH

binding result [7]: no binding (tested: 30 µg/mL)
binding result (recombinant mouse CA9): no binding
EC50 [8]: 0.92 nM
Kd (recombinant human CA9): 0.15 nM
koff (recombinant human CA9): 4.9e-05 s⁻¹
kon (recombinant human CA9): 325000 M⁻¹ s⁻¹
B5: CA9 1-mIgG2a (antibody, V domains shown)
VH: QVQLVQSGAEVKKPGASVKVSCKASGYTFTSYYMHWVRQAPGQGLEWMGIINPSRGSASYAQKFQGRVTMARDTSTSTVYMELSSLRSEDTAVYYCARDRNYYYYMDVWGKGTTVTVSS
VL: EIVMTQSPATLSVSPGERATLSCRASQNISSNLAWYQQKPGQAPRLLIYGASTRATDIPARFSGSGSGTEFTLTISSLQSEDFAVYYCQQYITWYTFGQGTKLEIK
notes: Fully human VH and VL cloned into mammalian expression vectors with mouse IgG2a constant domains (chimeric antibody, expressed in CHO); also called CA9 1 antigen biding fragment

binding result [9]: binds
B6: PSMA 2-mIgG2a (antibody, V domains shown)
VH: QVQLVQSGAEVKKPGASVKVSCKASGYTFSSYGVSWVRQAPGQGLEWMGWISKYNGNTNYAQKFQGRVTMTTDTSTSTAYMELRSLRSDDTAVYFCARGGIHGDSYYFYYLDVWGKGTTVTVSS
VL: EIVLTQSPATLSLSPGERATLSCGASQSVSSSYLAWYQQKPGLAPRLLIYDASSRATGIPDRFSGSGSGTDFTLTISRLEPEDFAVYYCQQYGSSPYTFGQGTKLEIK
notes: Fully human VH and VL cloned into vectors with mouse IgG2a constant domains (chimeric, expressed in CHO)
